Laboratory results from patent publication US20100286027A1, “ANTI-BACTERIAL COMPOSITIONS” (priority 2008, published 2010).

Experiments:
P. aeruginosa NB52019 = experiment: MIC against aerobic gram negative bacteria; assay type: cell-based, Pseudomonas aeruginosa
Staphylococcus aureus = experiment: Competition assay of Nod2 LRR activity against S. aureus; assay type: cell-based; conditions: then live S. aureus
Method: FIG. 6: Purified Nod2 LRR domains (Nod2: 30 microgram/ml) were preincubated with 200 microgram/ml of the indicated bacterial component prior to addition to Staphylococcus aureus. BSA was added as a protein control. Commercial […] extracts (sPGN: soluble […], iPGN: insoluble proteoglycan), lipoteichoic acid (LTA: crude lipoteichoic acid extract, upLTA: ultrapure lipoteichoic acid extract), or heat-killed S. aureus (HKSA) were used. Control indicates bacterial growth in the presence of BSA only.
If this interaction was the initiating factor for the Nod2 LRR antimicrobial effects, preincubating the domains with bacterial components containing this motif would be expected to inhibit the antibacterial activity. A competition assay was set up using Nod2 LRR activity against S. aureus. The recombinant LRR domains or BSA (control) were preincubated with various components of the S. aureus membrane prior to addition to live S. aureus and the bacterial viability assessed as in Table 1 above (FIG. 6).

Escherichia coli (25922) = experiment: BacTiter-Glo bacterial ATP content viability assay; conditions: gram −, +/− SD, n = 3, >100 = activity detected but <50% inhibition
[1] = tested on: Salmonella choleraesuis (13076); experiment: BacTiter-Glo bacterial ATP content viability assay; conditions: gram −, +/− SD, n = 3, >100 = activity detected but <50% inhibition
[2] = tested on: Streptococcus pneumoniae (ATCC 49619); experiment: Gentamycin protection assay in stable 293 cell lines; conditions: 293 cells stably expressing the protein, infected with S. pneumoniae at MOI 10:1, versus control cells
[3] = tested on: gram-positive and gram-negative anaerobic bacteria; experiment: MIC against panel of anaerobic bacteria, comparison with ciprofloxacin; assay type: cell-based; conditions: against all the anaerobic bacteria tested; molecular weights ~30000 da and 386 da
[4] = tested on: E. coli NB27005* (TolC efflux pump mutant); experiment: MIC against aerobic gram negative bacteria, efflux pump mutant; assay type: cell-based, Escherichia coli; conditions: aerobic gram negative; E. coli NB27005*, TolC efflux pump mutant strain
[5] = tested on: Fusobacterium nucleatum NB86006; experiment: MIC against anaerobic bacteria; assay type: cell-based
[6] = tested on: Clostridium difficile NB95002; experiment: MIC against anaerobic bacteria; assay type: cell-based

B1: Nod2: purified recombinant LRR domain of Nod2 expressed in E. coli; human NOD2-LRR is SEQ ID NO: 3; ~30000 da (protein, listed as Homo sapiens)
chain: PAAPGEAKSVHAMPGFIWLIRSLYEMQEERLARKAARGLNVGHLKLTFCSVGPTECAALAFVLQHLRRPVALQLDYNSVGDIGVEQLLPCLGVCKALYLRDNNISDRGICKLIECALHCEQLQKLALFNNKLTDGCAHSMAKLLACRQNFLALRLGNNYITAAGAQVLAEGLRGNTSLQFLGFWGNRVGDEGAQALAEALGDHQSLRWLSLVGNNIGSVGAQALALMLAKNVMLEELCLEENHLQDEGVCSLAEGLKKNSSLKILKLSNNCITYLGAEALLQALERNDTILEVWLRGNTFSLEEVDKLGCRDTRLLL
notes: purified recombinant LRR domain of Nod2 expressed in E. coli; ~30000 da
P. aeruginosa NB52019
  minimal inhibitory concentration (MIC): >128 microgram/ml
Staphylococcus aureus; Nod2 30 microgram/ml preincubated with 200 microgram/ml HKSA
  inhibition of antibacterial effect by preincubation with heat-killed S. aureus: Only heat-killed S. aureus was capable of inhibiting
Staphylococcus aureus; Nod2 30 microgram/ml preincubated with 200 microgram/ml bacterial component
  inhibition of antibacterial effect by preincubation with proteoglycan or lipoteichoic acid: Neither S. aureus proteoglycan containing the MDP motif, nor lipoteichoic acid inhibited
Escherichia coli (25922)
  antibacterial activity by bacterial ATP content (IC50), [LRR domain]: >100 microgram/ml
[1]
  antibacterial activity by bacterial ATP content (IC50), [LRR domain]: None detected
[2]
  number of gentamycin-protected intracellular bacteria: drastically reduced
[3]
  potency relative to ciprofloxacin on a molar (mmoles/ml) basis: 25-200 times
[4]
  minimal inhibitory concentration (MIC): 32 microgram/ml
[5]
  minimal inhibitory concentration (MIC): 8 microgram/ml
[6]
  minimal inhibitory concentration (MIC): 4 microgram/ml
